Legend:
[1] = biological target: mussel foot protein-3 slow (mfp-3s), hydrophobic variant (Mytilus californianus); experiment: QCM-D
[2] = biological target: mussel foot protein-3 slow (mfp-3s), hydrophobic variant (Mytilus californianus); experiment: surface forces apparatus

adsorbed hydrated mass after adding mfp-3s to TiO2 pre-exposed to COL1A1 [1] [ng/cm^2] | total adsorbed hydrated mass of COL1A1/mfp-3s on TiO2 [1] [ng/cm^2] | cohesive energy Wc of mfp-3s films with COL1A1 between them [2] [mJ/m^2] | cohesive energy Wc (tc ~ 2 min) [2] [mJ/m^2] | Substance
209 | 445 | 7.2 | – | rat-tail tropocollagen type-1 (COL1A1) (from UniProt P02454 152-1207; P02466 86-1125) (natural protein)
– | – | – | 5.4 | mussel foot protein-3 slow (mfp-3s), hydrophobic variant (natural protein)

Reference: paper PMC4361793
